The values below come from patent US20230149522A1, “POLYPEPTIDE FOR THE PROPHYLAXIS AND TREATMENT OF VIRAL INFECTIONS” (priority 2020, published 2023).

Where two headings read alike, the source gives them in different places.

The test system of one data set is LV(Luc)-G. The format is cell-based, Vesicular Stomatitis Virus.
In data set [1] the test system is VSV(Luc-eGFP)-CoV-2. Put plainly: microbe, parasite or virus in culture. The conditions noted are these: Vesicular stomatitis virus, Caco-2, read-out: IC50 VSV(Luc-eGFP)-CoV-2.
Data set [2] relates to LV(Luc)-CoV-2. Put plainly: microbe, parasite or virus in culture. The conditions noted are these: Severe acute respiratory syndrome coronavirus 2, Caco-2, read-out: IC50 LV(Luc)-CoV-2.
Data set [3] concerns VSV(Luc-eGFP)-CoV-2.
In data set [4] the test system is LV(Luc)-CoV-2.
Data set [5] relates to Caco2 (colorectal carcinoma cells).
For data set [6] the test system is unchanged. This is another data set of the same source.
The mark [7] stands for this setting: read-out: IC50 VSV(Luc-eGFP)-CoV-2.

As usually defined, the IC50 is the concentration at which inhibition is half-maximal. In the case of `CN(C)C(=O)COC(=O)Cc1ccc(OC(=O)c2ccc(NC(=N)N)cc2)cc1` [CM, camostat mesilate, reference compound], the “IC50 LV(Luc)-G” value in the data set with LV(Luc)-G is recorded as “unstable”. Besides, the IC50 amounted to 87.5 nM with VSV(Luc-eGFP)-CoV-2 [1] and 242 nM in the data set with LV(Luc)-CoV-2 [2]. For the same molecule, in the data set with LV(Luc)-MLV, the “IC50 LV(Luc)-MLV” value is recorded as “unstable”.
On to `CC[C@H](C)[C@H](NC(=O)[C@H](C)NC(=O)[C@H](CCC(=O)O)NC(=O)[C@H](CCC(=O)O)NC(=O)[C@H](CC(C)C)NC(=O)[C@H](CCCCN)NC(=O)[C@H](CCCCN)NC(=O)[C@H](CCSC)NC(=O)[C@H](CCC(=O)O)NC(=O)[C@H](Cc1ccc(O)cc1)NC(=O)[C@H](CCC(=O)O)NC(=O)[C@H](CC(C)C)NC(=O)[C@H](CC(=O)O)NC(=O)[C@H](CC(C)C)NC(=O)[C@H](Cc1ccccc1)NC(=O)[C@@H](NC(=O)[C@@H](NC(=O)[C@H](CC(N)=O)NC(=O)[C@@H](NC(=O)[C@H](CCC(N)=O)NC(=O)[C@H](CC(=O)O)NC(=O)[C@H](CC(C)C)NC(=O)[C@@H](N)CO)[C@@H](C)CC)C(C)C)[C@@H](C)O)C(=O)N[C@@H](CCCCN)C(=O)N[C@@H](CCCCN)C(=O)N[C@@H](CC(C)C)C(=O)N[C@@H](CCC(=O)O)C(=O)N[C@@H](CCC(=O)O)C(=O)N[C@@H](CO)C(=O)N[C@@H](Cc1ccc(O)cc1)C(=O)N[C@H](C(=O)N[C@@H](CC(=O)O)C(=O)N[C@@H](CC(C)C)C(=O)N[C@@H](CCCCN)C(=O)N[C@@H](CCC(=O)O)C(=O)N[C@@H](CC(C)C)C(=O)O)[C@@H](C)CC` [EK1, reference compound], for which the IC50 in the data set on VSV(Luc-eGFP)-CoV-2 [3] (2 h) is 281 nM; in the data set on LV(Luc)-CoV-2 [4] (1 h) it was 82.4 nM; in the data set with VSV(Luc-eGFP)-G (2 h) it was greater than 20000 nM; in the data set on LV(Luc)-MLV (1 h), greater than 20000 nM.

B1: LD15 (protein)
chain: EEDSPDSFSSLDSEMCKDYRVLPRIGYLCPKDLKPVCGDDGQTYNNPCMLCHENLIRQTNTHIRSTGKCEESSTPGTTAASMPPSDE
modifications: human
For the molecule B1, the IC50 with VSV(Luc-eGFP)-CoV-2 [3] (setting [7]) turned out to be 1850 nM; in the data set on LV(Luc)-CoV-2 [4] (read-out: IC50 LV(Luc)-CoV-2), 956 nM; with LV(Luc)-G it was 545 nM; in the data set on VSV(Luc-eGFP)-G (read-out: IC50 VSV(Luc-eGFP)-G), 1020 nM; in the data set with LV(Luc)-MLV (read-out: IC50 LV(Luc)-MLV), 1270 nM. In addition, in [5], the “toxicity at the concentrations tested” value was “toxic at the (two) maximum concentrations tested”.

B2: LD6 (protein)
chain: ESGKATSYAELCNEYRKLVRNGKLACTRENDPIQGPDGKVHGNTCSMCEVFFQAEEEEKKKKEGESRNKR
modifications: human
For the molecule B2, the IC50 in the data set on VSV(Luc-eGFP)-CoV-2 [3] (setting [7]) worked out at 4090 nM; in the data set with LV(Luc)-CoV-2 [4] (read-out: IC50 LV(Luc)-CoV-2) it was 1030 nM; with LV(Luc)-G it was 2150 nM; with VSV(Luc-eGFP)-G (read-out: IC50 VSV(Luc-eGFP)-G) it was 1610 nM. Moreover, the “toxicity at the concentrations tested” value in data set [5] and in data set [6] was “toxic at the (two) maximum concentrations tested” each time. The “IC50 LV(Luc)-MLV” value in the data set on LV(Luc)-MLV is given as “unstable”.

B3: LD2/3 (protein)
chain: ARHLARAPKATAPTELNCDDFKKGERDGDFICPDYYEAVCGTDGKTYDNRCALCAENAKTGSQIGVKSEGECKSSNPEQDVCSAFRPFVRDGRLGCTRENDPVLGPDGKTHGNKCAMCAELFLKEAENAKREGETRIRRN
modifications: human
Consider B3, for which the IC50 turned out to be 411 nM in the data set on VSV(Luc-eGFP)-CoV-2 [3] (setting [7]); 181 nM with LV(Luc)-CoV-2 [4] (read-out: IC50 LV(Luc)-CoV-2); 128 nM in the data set with LV(Luc)-G; 257 nM in the data set on VSV(Luc-eGFP)-G (read-out: IC50 VSV(Luc-eGFP)-G); 343 nM with LV(Luc)-MLV (read-out: IC50 LV(Luc)-MLV). For the same molecule, the “toxicity at the concentrations tested” value in data set [5] is “toxic at the (two) maximum concentrations tested”.
